Data as given in the supplement of paper PMC12042874.
± gives the uncertainty stated by the source.

Assay: amyloid nucleation score (Sup35N fusion, yeast selection) (log enrichment); library NNK3; higher = more nucleation; inactive = no reads after selection
How it was run: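 For the nucleation score, DiMSum gave the log enrichment of output over input reads, centred on the mode score of non-aggregating sequences. Psi-negative yeast expressing Sup35N fused to peptides of 20 random codons were induced with 100 μM copper sulfate for 24 hours and grown 7 days at 30°C on medium lacking adenine and uracil. Input and output plasmid inserts were Illumina-sequenced, and sequences with under 100 input reads were excluded.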

| Substance | amyloid nucleation score |
| --- | --- |
| IWLVLESCNVPFL | inactive |
| LSELYHTFYSVVNGGHVLMI | inactive |
| NWSSRFMTT | inactive |
| GVHIMRGGGIYVVGGLESWA | inactive |
| TCFESLGLDVPIPYNRWVRS | inactive |
| SKFIRRT | inactive |
| LSSCLSRI | inactive |
| YANCLDNIPDRVQDMYSCFS | inactive |
| YSGMGCFSAWSMW | inactive |
| THTSAKDHRVDWLSQL | inactive |
| TRLKFTLDWELM | 1.06 ± 0.098 |
| LCLSTIV | inactive |
| KLVCRIIDAKAH | inactive |
| NCVPSCSAAFKSISRQPHGS | 0.115 ± 0.88 |
| MSSLDARIMSHYVYMVIDPV | inactive |
| SDPVPVMDIALYLVNPQLPS | inactive |
| SWNVFFFSGFRVPYYALTGV | 0.254 ± 0.82 |
| LFVRVCSANYFSWEYDSRVN | inactive |
| NHNPVCGVDNRMKVVRLYYV | inactive |
| EFRIKRNR | inactive |
| MLLSSVPDCFSWMGLRFCGD | inactive |
| VPGYLWECS | inactive |
| GGRLSLKESWKAGFSIAERF | inactive |
| SVRYTV | inactive |

| Substance | amyloid nucleation score |
| --- | --- |
| CRFWGFDSSINEVGLMQNHL | inactive |
| MGRISVLPYLKFSYAIWY | inactive |
| RMHGETARWLGAQIWSDRSC | inactive |
| NDCISHVSSCRMYDETKVCL | inactive |
| PTTMVPQPRPYSLRRTLAY | inactive |
| MTGDPGQFNAGDRLM | inactive |
| FSWFHRRSYSVVTSLCLMGR | inactive |
| GSNVNEVKNAQYTSRVGVCR | inactive |
| SNPLYGSDMQVHYF | 1.16 ± 0.14 |
| IMNHLLSRVVCFLDKIVHMG | inactive |
| GSHELHWSVGYQESVLLRYH | inactive |
| AWKTLAHRQSWGGCNRA | inactive |
| VLRLFDTNPHDSREVAYFYF | inactive |
| ATGLWGICGWTPDTNHLQVM | inactive |
| NSNYSVG | inactive |
| RCLTEA | inactive |
| KILLHRRHVTPCFKCLNRLD | inactive |
| VRDQLRVTLVRSENGIHAHY | inactive |
| CLWKG | inactive |
| PYYNRGFCGYGFSQVMEVL | inactive |
| GNVMSRRDTLWIVIYVRFRH | inactive |
| ELSFPL | inactive |
| GDTDFYRSCNASYIPSLSRL | inactive |
| ILADSCGV | inactive |

| Substance | amyloid nucleation score |
| --- | --- |
| MSADSCCSSCLVSTGTRVTF | inactive |
| LLVKSYNLYIMFSPHL | 1.68 ± 0.078 |
| VKRGLVCETSLCRYFFLFGQ | 1.35 ± 0.089 |
| NLWLKSFWSLRLFLRDL | 0.68 ± 0.23 |
| KCLEGLMVVANDWWVKCFTS | 0.671 ± 0.24 |
| VNFLSDIVNFGCIVWFPPKI | 2.32 ± 0.087 |
| LDRKFGLRYNGTSYTCDSMV | inactive |
| MFTGGMFRKVTIQIL | inactive |
| HWVWIGVCLYNDRRGTGICV | 1.15 ± 0.16 |
| LKLYTLLDRNSNKRTNAGMS | -0.469 ± 0.88 |
| TFSDVGLFYLTQYDKVPFDL | inactive |
| YGRLPSWIKWFFLVVYIRVL | inactive |
| TRMWYGLLAENGCAYLGCNW | inactive |
| FVKLKYINFGCLRGCESGCL | 1.42 ± 0.13 |
| RQGPIYPWVLC | inactive |
| MAEWENRLARYSGICGSSLP | inactive |
| VFRTSLLKSYFGFNMKCDNY | 0.039 ± 0.26 |
| YFIALCINSDKPPVHGVAVV | inactive |
| VWVFKTNFVFRVQLGHSLGC | 1.46 ± 0.094 |
| CVTINVIFDNVVY | 2.3 ± 0.061 |
| FGEFKDCQGFSKF | inactive |
| SFWIV | inactive |
| SGGKWFIFRCT | inactive |
| GRYVCRL | -0.459 ± 0.9 |

| Substance | amyloid nucleation score |
| --- | --- |
| LEYYAS | inactive |
| CWTMVASVTCYIVLLARWK | inactive |
| EFGWQL | inactive |
| TYFRHYRKRSRSTSDLYLRL | inactive |
| FSACS | inactive |
| YSVLLCVALRLVNNVA | inactive |
| FGAAFQNYVKFPVPKMFTCH | inactive |
| LSIGFNLWSKLKYSRKVSGM | inactive |
| CRWNVNNFPHLFITKMMFRY | inactive |
| FLIPQGERSVLCMGCYFLYA | 1.85 ± 0.098 |
| LSPGTFCRVDSTPVWVNACP | -0.294 ± 0.47 |
| NENYVIAGC | inactive |
| QFEHF | inactive |
| SLGSCTMFSFSIFWISVQSV | 1.34 ± 0.084 |
| NSRLFAYKLKLVV | inactive |
| FYSSSL | inactive |
| ECYTSCVMIYIIHCYKNLRL | inactive |
| TCSHIIPYWYGVRNSQVRYS | inactive |
| SQVVTVRCPDSSLCEIFSWG | inactive |
| EIKSDICFGFVYTTS | inactive |
| YTVTASQTYFYSCRDGFAFS | inactive |
| IEVYAGTF | inactive |
| FASSDC | inactive |
| GLCRNCF | inactive |

| Substance | amyloid nucleation score |
| --- | --- |
| LGYDWRDVNNGK | inactive |
| SEFGPIEATSAHMFESPFKG | inactive |
| VGRYPSLVSLNDTCNDVTRI | inactive |
| TIEFWGRVAGFLLM | inactive |
| PTKMCCLFTVIF | 2.13 ± 0.069 |
| LNMKTV | -0.702 ± 1 |
| RRLSM | inactive |
| LVIASGRVIVIVCYV | inactive |
| SQFDEMLFSKMEPWQVLFTM | inactive |
| WRVFVIRYKKSMYAETGKVK | inactive |
| SCRDDLLVMSKVTLITMT | inactive |
| KMKSAIIPVECGSR | inactive |
| QYFRLLTLISRPFKTHRGVG | inactive |
| TVLYWRLRQMMRFRLFSSNW | inactive |
| CISLSRL | inactive |
| LIIMNVKSSSSHKRAGVST | inactive |
| RQIMGQKRKNRQESFGFVGC | inactive |
| SVDEVRCTCVYSCGVWPGGC | inactive |
| PWSCISLFNFFGITPCWTLS | 0.491 ± 0.67 |
| DGFLKLEFAFQCFTRLCLAF | inactive |
| SSTMLTNIWHHPNHGVVWDR | inactive |
| VIVLNFALLRASLSAGFLMS | 0.405 ± 0.28 |
| FMHPADVEHGTREYLNVTGG | inactive |
| NYVLPIVCL | inactive |

| Substance | amyloid nucleation score |
| --- | --- |
| NLVNFYYLVRAFDCELLFRG | inactive |
| QYVCVRS | inactive |
| VMVSPPFTYWSRYVDYEYGE | inactive |
| DHVGCATNRSDVDVTVFV | inactive |
| YVDIY | inactive |
| SSVKMTDLRH | inactive |
| FSPFYCHILLH | inactive |
| CLKFQSVY | inactive |
| FRMPDGELSGT | inactive |
| HISGYNDYMFDP | inactive |
| FLIIDAVLEPVGLLFFTKFS | inactive |
| GRVFRCTPEVFIK | inactive |
| IYMFVHIK | 1.68 ± 0.086 |
| QMFSLTFIVMFLFFPSRGCR | inactive |
| CNYWCDVGLYGSKAFERSAT | inactive |
| YYIIWRFQGIVLKYGTALTF | inactive |
| QRNMVSEGATRCLSTDFPCL | inactive |
| YCAALGSSY | inactive |
| VLRRLGWICL | inactive |
| ICSYTSVYSRKW | 0.404 ± 0.35 |
| SRYTLNAFYMWG | 2.02 ± 0.1 |
| THDSMHKCERMITPRGGCQQ | inactive |
| FSGRMVFNPPIISCSYSWSW | inactive |
| RRLPPIRCSHNLNSVPQD | inactive |

| Substance | amyloid nucleation score |
| --- | --- |
| AVCWLRMTYGLRLEVGSPVD | inactive |
| TVARMRFSTMTRDAQCVGRL | 0.107 ± 0.9 |
| RRTDGATEACISTSGPEYIV | inactive |
| ILSNDEFTCKFCCSCSYRGG | 0.956 ± 0.31 |
| VVWLQFGMEVKSSFSMTSKT | inactive |
| SRQGVNQKRTVCWS | inactive |
| TFKLD | inactive |
| DGAVFRFNMGHYKYSLVEVM | inactive |
| VLSHSHGSWSRESYKLLRLD | inactive |
| SGLDRWDAEVVSILWVKLTV | 1.44 ± 0.094 |
| NDHLLL | inactive |
| RLGWFYRNIYLLTVEVGRGR | inactive |
| RLYVPLLVDVLWEKCKHSNV | inactive |
| PSSFASP | inactive |
| PATVNRSWNFGIRFNGARNN | -0.404 ± 0.8 |
| ESASSYFLY | 0.583 ± 0.24 |
| CCNFWRMPMTLCRNSCSSST | 0.718 ± 0.17 |
| TAVWRFATSGKFFYSQSLGM | 1.41 ± 0.14 |
